Assay: Measurement of PLA2 activity in the soluble fraction of insect cells (Sf9) expressing the human-derived polypeptide
Assay type: biochemical
Details: 4 mmol/l calcium chloride, 37° C., 2 hours, control: pVL1393 vector virus, FIG. 10
Protocol: The supernatant containing the virus recovered in (2) above (2 ml) was added to 28 ml of 1.5×10^6/ml suspending Sf9 cells, and the cells were cultured at 27° C. for 4 days in the suspending state. The cells were recovered by centrifugation at 800 rpm for 5 minutes and washed with phosphate-buffered saline (PBS). The resulting cells were suspended in a buffer consisting of 25 mmol/l Tris-HCl (pH 7.5), 140 mmol/l sodium chloride, 5 mmol/l potassium chloride, 2 mmol/l EDTA and 1× complete, EDTA-free (Boehringer Mannheim) and disrupted on ice using a sonicator. The extract was centrifuged at 15,000 rpm for 15 minutes, and the supernatant was used for the measurement of PLA2 activity.
One hundred μl of a reaction solution [100 mmol/l Tris-HCl (pH 7.5), 4 mmol/l calcium chloride, 1 mg/ml bovine serum albumin (substantially fatty acid-free, Sigma) and 8 μmol/l Triton X-100] containing 1-palmitoyl-2-[1-^14C]arachidonyl-phosphatidylcholine (48 mCi/mmol, Daiichi Kagaku Yakuhin) (2 μmol/l) and the supernatant obtained above was incubated at 37° C. for 2 hours, followed by the addition of Dole reagent (containing 2-propanol, heptane and sulfuric acid at a ratio of 78:20:2) to stop the reaction. To the reaction mixture were further added 0.3 ml of heptane and 0.2 ml of water, and mixing was effected by rotation. […] The amount of the polypeptide was determined using the Bio Rad Protein Assay method. […]

B1: human-derived polypeptide of the present invention: novel human cytoplasmic phospholipase A2 polypeptide having the amino acid sequence shown in SEQ ID NO: 1, Flag-tagged, expressed in insect cells (protein, listed as Homo sapiens)
chain: MLWALWPRWLADKMLPLLGAVLLQKREKRGPLWRHWRRETYPYYDLQVKVLRATNIRGTDLLSKADCYVQLWLPTASPSPAQTRIVANCSDPEWNETFHYQIHGAVKNVLELTLYDKDILGSDQLSLLLFDLRSLKCGQPHKHTFPLNHQDSQELQVEFVLEKSQVPASEVITNGVLVAHPCLRIQGTLRGDGTAPREEYGSGQLQLAVPGAYEKPQLLPLQPPTEPGLPPTFTFHVNPVLSSRLHVELMELLAAVQSGPSTELEAQTSKLGEGGILLSSLPLGQEEQCSVALGEGQEVALSMKVEMSSGDLDLRLGFDLSDGEQEFLDRRKQVVSKALQQVLGLSEALDSGQVPVVAVLGSGGGTRAMSSLYGSLAGLQELGLLDTVTYLSGVSGSTWCISTLYRDPAWSQVALQGPIERAQVHVCSSKMGALSTERLQYYTQELGVRERSGHSVSLIDLWGLLVEYLLYQEENPAKLSDQQEAVRQGQNPYPIYTSVNVRTNLSGEDFAEWCEFTPYEVGFPKYGAYVPTELFGSELFMGRLLQLQPEPRICYLQGMWGSAFATSLDEIFLKTAGSGLSFLEWYRGSVNITDDCQKPQLHNPSRLRTRLLTPQGPFSQAVLDIFTSRFTSAQSFNFTRGLCLHKDYVAGREFVAWKDTHPDAFPNQLTPMRDCLYLVDGGFAINSPFPLALLPQRAVDLILSFDYSLEAPFEVLKMTEKYCLDRGIPFPSIEVGPEDVEEARECYLFAKAEDPRSPIVLHFPLVNRTFRTHLAPGVERQTAEEKAFGDFVINRPDTPYGMMNFTYEPQDFYRLVALSRYNVLNNVETLKCALQLALDRHQARERAGA
modifications: Flag tag
PLA2 activity that hydrolyzes the ester bond at the sn-2-position in 1-palmitoyl-2-arachidonyl-phosphatidylcholine: has PLA2 activity
